This is an account of results in article PMC8602864, “The Molecular Assembly State of Drp1 Controls its Association With the Mitochondrial Recruitment Receptors Mff and MIEF1/2” (Frontiers in Cell and Developmental Biology, 2021).

This series deals with the molecule itself. As to the kind of experiment: cross-linking; in vivo: intact 293T cells (WT; MIEF1/2/Mff-/-; overexpressing MIEF1-V5, MIEF2-V5 or Myc-Mff; or Drp1-/- transfected with untagged Drp1 for 18 h) with 1 mM DSS in PBS with Ca2+/Mg2+, time course or 3 h, room temperature, quenched with 50 mM Tris pH 7.5; reducing SDS-PAGE and Western blot. (Immunoblotting shows a protein as a band on a membrane.)

B1: untagged Drp1-4A (natural protein, human, UniProt O00429 1-736, looked up)
chain: MEALIPVINKLQDVFNTVGADIIQLPQIVVVGTQSSGKSSVLESLVGRDLLPRGTGIVTRRPLILQLVHVSQEDKRKTTGEENGVEAEEWGKFLHTKNKLYTDFDEIRQEIENETERISGNNKGVSPEPIHLKIFSPNVVNLTLVDLPGMTKVPVGDQPKDIELQIRELILRFISNPNSIILAVTAANTDMATSEALKISREVDPDGRRTLAVITKLDLMDAGTDAMDVLMGRVIPVKLGIIGVVNRSQLDINNKKSVTDSIRDEYAFLQKKYPSLANRNGTKYLARTLNRLLMHHIRDCLPELKTRINVLAAQYQSLLNSYGEPVDDKSATLLQLITKFATEYCNTIEGTAKYIETSELCGGARICYIFHETFGRTLESVDPLGGLNTIDILTAIRNATAAAAALFVPEVSFELLVKRQIKRLEEPSLRCVELVHEEMQRIIQHCSNYSTQELLRFPKLHDAIVEVVTCLLRKRLPVTNEMVHNLVAIELAYINTKHPDFADACGLMNNNIEEQRRNRLARELPSAVSRDKSSKVPSALAPASQEPSPAASAEADGKLIQDSRRETKNVASGGGGVGDGVQEPTTGNWRGMLKTSKAEELLAEEKSKPIPIMPASPQKGHAVNLLDVPVPVARKLSAREQRDCEVIERLIKSYFLIVRKNIQDSVPKAVMHFLVNHVKDTLQSELVGQLYKSSLLDDLLTESEDMAQRRKEAADMLKALQGASQIIAEIRETHLW
notes: human Drp1 isoform 1 with the four residues 401GPRP404 mutated to AAAA, untagged; Made by site-directed mutagenesis on untagged Drp1-WT; Copies: ~280 kDa cross-linked product said to correspond to tetramers; also called Drp1-4A mutant
One may read the stoichiometry N as the number of molecules, sites or subunits per partner or assembly. As for B1, the “stoichiometry N” value stood at 4.
